Data from the nanobody polyreactivity screen of Harvey et al. (2022).

Test: yeast display, Sf9 membrane polyspecificity reagent, FACS + sequencing; frameworks hold sequencing errors
Method in brief: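 In a synthetic yeast display library (Saccharomyces cerevisiae BJ5465), nanobody expression was induced with galactose for 36–48 hours. FACS gates were set low and high (top ~1%) using anti-HA fluorescence for expression and streptavidin fluorescence for binding of the Sf9 membrane reagent. Each polyreactivity label is drawn from the gate of origin.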

Row | Sequence | polyreactivity (PSR sort gate)
1 | QVQLVESGGGLVQAGGSLRLSCAASGSIFNVYVMGWYRQAPGKERELVASITWTTGSTYADSVKGRFTISRDNAKNSVYFQMNSLKPEDTAVYYCNAEFPEDTSDDYWGQGTQVNVSS | low polyreactivity
2 | QVQLVESGGGLVQAGGSLRLSCAASGRIFDLNAMGWYRQAPGKETELVAAISYSGGRTFYADSVKGRFTISRDNAKNTVYLQMNSLKPEDTAVYYCNARYGKPAYQYGMDYWGQGTQVTVSS | low polyreactivity
3 | QDQHVESGGGLVQAGGSLRLSCAASVITYGRYVMGWDRQAPGKERELVAAITGSGGSTYYADSVKGRFTISRDNAKNTVYLQMNSLKAEDTAVYYCAAAGGYRFDYWGQGTQVTVSS | high polyreactivity
4 | QVQLVESGGGLVQAGGSLRLSCAASGFIFHLYGMGWYRQATGKERELVAAISSGGRTYYADSVKGRFTISRDNAKNTVYLQMNSLKPEDTAVYYCAVYVAYLYSYYYWGQGTQVTVSS | low polyreactivity
5 | QVQLVESGGGLVQAGCSLRLSCAASGYIFYPYAMGWYRQAPGKERELVAAISGSGSGTYYADSVKGRFTISRDNAKNTVYLQMNSLKPEDTADYYCAKYVYDNVWMDYWGQGTQVTVSS | high polyreactivity
6 | QVQLVESGGGLVQAGCSLRLSCAASGSTLYTYAMGWYRQAPGKERELVATISWSGSSTYYADSVKGRFTISRDNAKNTVYLQMNSLKPEDTAVYYCAAQYHYWYRLDYWGQGTQVTVSS | high polyreactivity
7 | QVQLVESGGGIVQAGGSLRLSCAASGFTFAVNAMGWYRQAPGKERELVAGISRRGGNTYYADSVKGRFTISRDNAKNTVYLQMNSLKPEDTAVYYCARYSYSYWGQGTQVTVSS | high polyreactivity
8 | QVQLVESGGGLVQAGGSLRLSCAASGSTLRTYAMGWYRQAPGKERELVAAISFSTTSTYYADSVKGRFTISRDNAKNTVYLQMNSLKPEDTAVYYCAAEYWYYWEYEYWGQGTQVTVSS | high polyreactivity
9 | QVQLVESGGGLVQAGGSLRLSCAASGRTFYYNTMGWYRQAPGKERELVATISRIGGSTYYADSVKGRFTISRDNAKNTVYLQMNSLKPEDTAVYYCAKGRSLNGRPPVVYWQLFYYWGQGTQVTVSS | high polyreactivity
10 | QVQLVESGGGLVQAGGSLRISCAASGRTFRKYAMGWYRQAPGKERELVAAISWSGGSTYYANSVKGRFTISRDNAKNTVYLQMNSLKPEDTAVYYCAAVPVHTGSLYWGFTSGYDYWGQGTQVTVSS | low polyreactivity
11 | QVQLVETGGGLVQAGGSLRLSCAASGFILSLYAMGWYRQAPGKERELVAAISRSGASTSYADSVKGRFTISRDNAKNSVYLQMNSLKPEDTAVYYCNVRRWPYSPGYDYWGQGTQVTVSS | high polyreactivity
12 | QVQLVESGGGLVQAGGSLRLSCAASGSIFGINAMGWYRQAPGKERELVAAISWRGDSTSYADSVKGRFTISRDNAKNTVYLQMNSLKPEDTAVYYCAKGGTRFYVVGETYYYWGQGTQVTVSS | low polyreactivity
13 | QVQLVESGGGLVQAGGSLRLSWAASGFTFTSYTMGWYTPAPGKERELVAAISNTGGSTYYADSVKGRFTISRDNAKNTVYLQMNSLKPEDTAVYYCAARTHTYGKFWRYYWGQGTQVTVSS | low polyreactivity
14 | QVQLVESGGGLVQAGGSLRLSCASSGRICGYYAMGLYRQAPGKERELVAAITSGGSTYYADSVKGRFTISRDNEKNTVYFQMKSLKPEDTAVYFCNKVTRYSPYDYWGQGTQVTVSS | high polyreactivity
15 | QVQLVESGGGLVQAGGSLRLSCAASGYTFASYTMGLYRQAPGKERELVATISRGGGRTYYADSVKGRFTISRDNAKNTVYLQMNSLKPEDTAVYYCATRLYPHQYYYWGQGTQVTVSS | high polyreactivity
16 | QVQLVESGGGLVQAGGSLRLSCAASGSIFVPYAMGWYRQAPGKERELVASINWNGSSTYADSVKGRFTISRDNAKNSVYLQMNSLKPEDTAVYYCNADYNRNSVQFSLYDYWGQGTQVTVST | low polyreactivity
17 | QVQLVESGGRLFQAGGSLRLSCAASGRIFYHNALGWYRQAPGKERELVADNASGGSTYYADSVKARFTISRDNAKNTVYLQMNSLKPEDTAVYYCAAEDEDSIFPFPYGAGSLFDFWGQGTQVTVSS | low polyreactivity
18 | QFQHVESGGGLVQAGGSLRLSCAASGRTFGPYAMGCYIQAPGKERELVAAISSGGRTYYADSVKGRFTISRDNAKNTVYFQMNSLKPEDTAVYYCAATYGPSRYRYDYWGQGTQVTVSS | high polyreactivity
19 | QVQLVESGGGLVQAGGSLRLSCAASGVIFNRYAMGWYRQAPGKERELVAAISSGGNTHYADSVKGRFTISRDNAKNTDYLQMNSLKPEDTAVYYCAKAFRHSTFFAPYDYWGQGTQVTVSS | low polyreactivity
20 | QVQHVESGGGLVQAGGSLRLSCAASARIFYWYVMGWSRQAPGKERELVASISRSGGSTYYADSVKGRFTISRDNAKNTVYVQMNSLKPEDTAVYYCNAGSVYTVSLPGHPYDYWGQGTQVTVSS | low polyreactivity
21 | QVQLVESGGGLVQAGGSLRLSCAASGRIFRRYAMGWYRQAPGKERELVAAISSRGGSTYYADSVKGRFTISRDNAKNTVYLQMNSLKPEDTAVYYCNADVSASEYDYWGQGTQVTVSS | high polyreactivity
22 | QVQLVESGGGLVQAGGSLRLSCAASGRTLRWYTMGGYRQAPGEERELVAAISSSGGSTYYADSVKGRFTISRDNAKNTVYLQMNSLKPEDTAVYYCARDRRLREYDYWGQGTQVTVSS | low polyreactivity

Row | Sequence | polyreactivity (PSR sort gate)
23 | QVQLVESGGGLVQAGGSLRLSCAASGYTFRYNALGWYRQAPGKERELVAAISSSGRTYYADSVKGRFTSSRDNAKNTVDLQMNSLKPDATAVYYCNAGPYAGARYRWGYDYWGQGTQVTVSS | high polyreactivity
24 | QVQLLESGGGLVQAGGSLRLSCAASGSTFDRYAMGWNRQAPGKEREFVAAITWGGGSTYYADSVKGRFTISRDNAKNTVYLKFNSLKPEDTAVYYCATRYGASFGYWVQGTQVTVSS | low polyreactivity
25 | QVQLVESGGGLVQAGCSLRLSCAASGSTFKRYAMGWYRQAPGKERELVASISSGGSTNYADSVKGRFTISRDNAKNTVYLQMNSLKPEDTAVYYCATRGHYRQTINYWGQGTQVSVSS | high polyreactivity
26 | QVQLVESGGGLVQAGGTLRLSCAASGIIFHWYAMGWYRQAPGKERELVAAITQSGGSTSYADSVKGRFTISRDNAKNTVYLQMNSLIPEDTAVYYCNAREVRDEYNYWGQGTQVTVSS | low polyreactivity
27 | QVQLVESGGGLVQAGGSLRLSCAASGSIFYYNTMGWYRQAPGKERELVAAITSTGRTNYADSVKGRFTISRDNAKNTVYLQINSLKPVDTAVYYCAKRRFGDGDYWGQGTQVTVSS | low polyreactivity
28 | QVQHVESGGGLVQAGGSLRLSCAASGSTFTAYVMGWYRQAPGKERELVAAISRSGGRTYYADSVKGRFTISRDNAKNTVYLQMNSLKPEDTAVYYCAARSGPLAYDYWGQGTQVTVSS | high polyreactivity
29 | QVQLVESWGGLVQAGGSLRLSCAASGSILYYYVMGWYRQAPGKERELVAAINSGGNTNYADSVKGRFTISRDNAKNTVYLQMNSLKTVDTAVYYCATASGDGVRTDFGNEYDYWGQGTQVNVSS | low polyreactivity
30 | QVQLVDSGGGLVQAGGSLRLSCAASGRTLWYYTMGWYRQAPGKERELVADITRGTSTNYADSVKVRFTISRDNAKNTVYLQMNSLKPEDTAVYYCNRAHGRSRYSRDYDSWGQGTQVTVSS | low polyreactivity
31 | QVQLVESGGGLVQAGGSLRLSCDASGRTSVIYAMGWYRQAPGKERELVASIRRGGSTSYADSVKGRFTISRDNAKNTVYLQMNSLKPEDTAVYYCASTFKSGMDYWGQGTQVTVSS | high polyreactivity
32 | QVQLEESGGGLVQAGGSLRLSCAASGSTFFLYAMGWYRQAPGKERELVAAITYTDGDTYYADSVKGRFTISRDNAKNTVYLQMNSLKPEDTAVYYCNAGGDEPVYGSGYDYWGQGTQVTVSS | low polyreactivity
33 | QVQLVESGGGLVQPGGSLRLRCAASGFIFWIYAMGWYRQAPGKERELVAAISLSSGSTYYADSVKGRFTISRDNAKNTVYLEMNSLKTEDTAVYYCAARGYSHVASRLYYYWGQGTQVTVSS | high polyreactivity
34 | QVQHVESGGGLVQAGGSLRLSCADSGSTFWFNAMGWYRQAHGKERELVAAIDWSDGSTYYADSVKGRFTISRDNAKNTVYLQMNSLKPEDTAVYYCAADHRYSARRSVPTLYDYWGQGTHVTVSS | low polyreactivity
35 | QVQLVESGGGLVQAGGSLRLRCAASGGTFYPYALGWYRQAPGKESELVAAISTSGGITYYADSVKARFTISRDNAKNTVYLQMNSLKPEDTAVYYCAAPVAYRGSRNFIYRYNYWGQGTQVTVSS | high polyreactivity
36 | QVQLVESGGGIVQAGGSLRLSIAASGNILNGNVMGWSRPEPGKERELVAAITSGGDTYYADSVKGRFTISRDNAKNTVYFQMNSLKPEDTAVYYCAADRPGQPKYEYWGQGTQVTVSS | low polyreactivity
37 | QVQLGESGGGLVQAGGSVRLSCAASGSTFWVNAMGWYRQAPGKERELVAAISNSGGSTYYADSVKGRFTISRDNAKNTVYLQMNSLKPEDTAVYYCAAAGGVDYDYWGQGTQVTVSS | low polyreactivity
38 | QVQLQESGGGLVQAGGSLRLSCAATGTIFTDRFMGWYRQAPGKERELVAGISPGTSTNYADSVKGRFTISRDNAKNTVYLQMNSLKPEDTAVYYCAADWSTGNTLPYWGQGTQVTVSS | high polyreactivity
39 | QVQLVESGGGIVQAGGSLRLSCAASGSIFFYYAMGWFRPAPGQERELVAAITSSGGTTYYADSVKGRFTISRDNAKNTVYLEMNSLKPEDTAVYDCNALTVGQRDYDYWGQGTQVTVSS | high polyreactivity
40 | QVQLVESGGGLVQAGGSLRLSCAASGRTFRYYALGWYRQAPGKERELVASITGSGGSTTYADSVKGRFTISRDNAKNTVYLLMNSLKPEDTAVYYCAVRYPYYSYRAKLGYWGQGTQVTVSS | high polyreactivity
41 | QVQLVESGGGLVQAGGSHRLSCAASGRIFRVYVMGWYRQAPGKEREFVAAISRRGSRTYADSVKGRFTISRDNAKNTVYLLMNSLKTEDTAVYYWAAECGYQAHPGQGDYWGQGTQVTVSS | high polyreactivity
42 | QVQLVESCGGLVQAGGSLRLSCAASGSIFVGNAMGWYRQAPGKERELVAAIDASGGNTYYADSVKGRFTISRDNAKNTVYLQMNSLKPEDTAVYYCNKYGYWWWGTRESDYWGQGTQVTVSS | high polyreactivity
43 | QVQLVESGGGLVQAGGSLRLSCAASGSIFGRYVMGWYRQAPGKERELVAAISGSGTSTYYADSVKGRFTISRDNAKNTVFLQMNSLKPEDTAVYYCAARDIKSSHDYDYWGQGTQVTVSS | low polyreactivity
